Experimental data published in the supplement of paper PMC10724198.
± gives the standard deviation of the averaged measurements.

System: Saccharomyces cerevisiae
Assay: protein stability index of tFT-peptide fusion (C-terminal peptide) (PSI (0-1 scale)); higher = more stable (slower turnover)
Settings: temperature: 30 C
Experimental: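 MPS profiling in S. cerevisiae of the yeast C-terminome library: the last 12 aa of each annotated ORF are fused to the C-terminus of a sfGFP-mCherry timer, after a GGGS linker. Cells are FACS-sorted into 8 mCherry/sfGFP bins and deep-sequenced. PSI runs from 0 (unstable) to 1 (stable); wild type and das1Δ backgrounds, two technical replicates each.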

[1] = genetic background: das1 deletion

Sequence | protein stability index [1] | protein stability index (genetic background: wild type)
ALNQVLGVPGAM [SSH1 C-terminal 12 aa] | 0.683 ± 0.017 | 0.671 ± 0.031
SKASLINKLIGN [NTR2 C-terminal 12 aa] | 0.685 ± 0.011 | 0.7 ± 0.013
YDANGSSSTIKR [MAM3 C-terminal 12 aa] | 0.736 ± 0.011 | 0.7007 ± 0.00097
NFQREVIDNSKL [LDH1 C-terminal 12 aa] | 0.697 ± 0.015 | 0.719 ± 0.067
HHVESVCIMKRI [TRM2 C-terminal 12 aa] | 0.668 ± 0.014 | 0.675 ± 0.034
DEELFLLSKSLR [SPC98 C-terminal 12 aa] | 0.724 ± 0.013 | 0.6784 ± 0.0026
EDITVQVPDTPT [EST1 C-terminal 12 aa] | 0.708 ± 0.017 | 0.674 ± 0.017
CPTPGCTCQCNK [SEA4 C-terminal 12 aa] | 0.69 ± 0.015 | 0.659 ± 0.0093
GDDPYAEYFQDF [TPK2 C-terminal 12 aa] | 0.735 ± 0.01 | 0.717 ± 0.039
VGLDDLKKLVTK [PCF11 C-terminal 12 aa] | 0.713 ± 0.03 | 0.744 ± 0.099
SGYSFNGSYGKS [WHI4 C-terminal 12 aa] | 0.671 ± 0.0029 | 0.659 ± 0.022
DSIADEFSSLYF [SPR6 C-terminal 12 aa] | 0.7689 ± 0.0042 | 0.721 ± 0.046
NRPGKSRRARRF [EBP2 C-terminal 12 aa] | 0.694 ± 0.026 | 0.668 ± 0.016
GSNNRGYTLIDL [ENT1 C-terminal 12 aa] | 0.698 ± 0.015 | 0.736 ± 0.029
NAASLIGTQQNN [DNF1 C-terminal 12 aa] | 0.709 ± 0.013 | 0.685 ± 0.013
PSRVALVLALKE [GLC3 C-terminal 12 aa] | 0.6875 ± 0.0016 | 0.747 ± 0.029
GLEFVASRSASS [MDH2 C-terminal 12 aa] | 0.692 ± 0.014 | 0.729 ± 0.033
AKPALFERFINA [MCD1 C-terminal 12 aa] | 0.6979 ± 0.0043 | 0.665 ± 0.011
NDDSKDEVDIIP [YPR196W C-terminal 12 aa] | 0.69 ± 0.013 | 0.698 ± 0.015
HWQYMKDYLNLY [SLI1 C-terminal 12 aa] | 0.715 ± 0.033 | 0.684 ± 0.06
ASFAKDVISLPE [YER046W-A C-terminal 12 aa] | 0.7202 ± 0.00094 | 0.699 ± 0.079

Sequence | protein stability index [1] | protein stability index (genetic background: wild type)
ILRQARCDRPHY [YEL068C C-terminal 12 aa] | 0.691 ± 0.02 | 0.727 ± 0.071
GYEDGTIKLNKI [ASA1 C-terminal 12 aa] | 0.697 ± 0.033 | 0.682 ± 0.018
ADDDFDADMELE [CDC16 C-terminal 12 aa] | 0.685 ± 0.0038 | 0.728 ± 0.028
GTVDEIIKFLSE [YTA7 C-terminal 12 aa] | 0.725 ± 0.023 | 0.736 ± 0.066
GNLPQPVFQPLL [VHR1 C-terminal 12 aa] | 0.701 ± 0.0019 | 0.6795 ± 0.0033
FFTTCTIGCYDA [BUD7 C-terminal 12 aa] | 0.6871 ± 0.0048 | 0.6861 ± 0.0047
RPSTNDPTSCCS [YPT52 C-terminal 12 aa] | 0.697 ± 0.025 | 0.705 ± 0.03
LQSLPISSWRCT [YBR220C C-terminal 12 aa] | 0.701 ± 0.0098 | 0.6711 ± 0.003
LLQHPWLDAHII [STE11 C-terminal 12 aa] | 0.722 ± 0.028 | 0.7253 ± 0.0019
HGGNISSSTYQA [GND2 C-terminal 12 aa] | 0.698 ± 0.02 | 0.722 ± 0.054
PRPACGVIGLTN [SOD1 C-terminal 12 aa] | 0.713 ± 0.03 | 0.726 ± 0.008
ANARLESESKDP [UNG1 C-terminal 12 aa] | 0.6954 ± 0.0034 | 0.667 ± 0.033
VSDAMFDQGDVF [GDH1 C-terminal 12 aa] | 0.72756 ± 0.0006 | 0.707 ± 0.012
DSEIEMLKGRLQ [EPO1 C-terminal 12 aa] | 0.6666 ± 0.002 | 0.694 ± 0.026
TDVVLCARLADD [RIB7 C-terminal 12 aa] | 0.676 ± 0.014 | 0.7 ± 0.038
ESEKELYNATRA [NHP6B C-terminal 12 aa] | 0.68817 ± 0.00058 | 0.716 ± 0.034
YVSHKGFITEDL [RPL9A C-terminal 12 aa] | 0.689 ± 0.055 | 0.679 ± 0.035
RRLDDLETTMRM [SFH1 C-terminal 12 aa] | 0.66 ± 0.015 | 0.662 ± 0.029
SKNVPALHMGGL [PBS2 C-terminal 12 aa] | 0.6847 ± 0.0027 | 0.6721 ± 0.0054
NPSLRQSRIQGW [YGR161W-C C-terminal 12 aa] | 0.725 ± 0.005 | 0.731 ± 0.034
